Measured values: patent publication US20250043022A1 (JIANGSU HENGRUI PHARMACEUTICALS, published 2025)
Positions count from the first letter of the chain named.

Assays:
[1] = target: T1, human PSMA on cells (Cho-hPSMA, CHO-K1 cells overexpressing full-length human PSMA) (human, UniProt Q04609 1-750); experiment: cell-based or functional assay
[2] = target: hIL5 (human, UniProt P05113 20-134); experiment: ELISA
[3] = target: hTSLP (human, UniProt Q969D9 29-159); experiment: ELISA
[4] = target: T2, human PSMA antigen (R&D SYSTEM, 4234-ZN-010) (human, UniProt Q04609 44-750); experiment: ELISA, plate-bound PSMA antigen
T2 construct: bought antigen
Protocol: To test the ability of the PSMA-targeting humanized antibodies of the present disclosure to bind to PSMA antigen, the ELISA method was used in this test example to measure the binding of the PSMA-targeting humanized antibodies to human PSMA antigen (purchased from R&D SYSTEM, 4234-ZN-010). The specific steps are as follows: A 96-well plate was coated with PSMA antigen at 1 μg/well and placed at 4° C. overnight. After the supernatant was discarded, the plate was blocked with 5% skim milk for 2 h. Different concentrations of humanized antibodies were prepared using 1% BSA. The initial concentration was 10 μg/mL and was serially diluted 4-fold to obtain 12 concentrations. After the blocked 96-well plate was washed twice, the […] was added, and the plate was incubated at 4° C. for 1 h. After four washes, the plate was incubated with Strepidation-HRP secondary antibody (1:10,000) at 4° C. for 1 h. After color development with TMB, the reaction was stopped with 0.1 M sulfuric acid.

[5] = target: T1, human PSMA on cells (Cho-hPSMA, CHO-K1 …); experiment: flow cytometry, Cho-hPSMA cells
Protocol: The binding activity of antibodies to the stably transfected cell strain Cho-hPSMA, which overexpresses human PSMA, was measured by flow cytometry in this test example. The full-length gene encoding human PSMA was cloned into the mammalian cell expression vector pCDH. HEK293T cells (ATCC® CRL-11268) were co-transfected with three plasmids-pVSV-G, pCMV-dR8.91, and pCDH-human PSMA- to package viruses. After 48 h of transfection, viruses were collected to infect CHO-K1 cells.
Experiment 1: Cho-hPSMA was cultured in F12 medium with 10% FBS. The medium to which cells were inoculated was incubated in a 37° C., 5% CO₂ incubator for 2 days, and cells were added to a cell plate at 1×10⁵ cells/well and washed by centrifugation. Antibodies were serially diluted, and the antibody solutions were added to the cell plate at 100 μL/well. The plate was incubated at 4° C. for 1 h and then washed. An AF488-Goat Anti-human IgG Fc fluorescent secondary antibody dilution (1:400) was added to the cell plate at 100 μL/well, and the plate was incubated at 4° C. for 1 h and then washed. PBS was added to the cell plate at 100 μL/well before plate reading.

[6] = target: hPDL1 (human, UniProt Q9NZQ7 19-238); experiment: ELISA
[7] = target: hCTLA4 (human, UniProt P16410 36-161); experiment: ELISA
Sequence of hCTLA4 (P16410 36-161 limits assumed): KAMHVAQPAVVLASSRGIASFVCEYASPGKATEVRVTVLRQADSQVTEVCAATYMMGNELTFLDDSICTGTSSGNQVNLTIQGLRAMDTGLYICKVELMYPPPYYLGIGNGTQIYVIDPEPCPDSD

T1 sequence (Q04609 whole entry): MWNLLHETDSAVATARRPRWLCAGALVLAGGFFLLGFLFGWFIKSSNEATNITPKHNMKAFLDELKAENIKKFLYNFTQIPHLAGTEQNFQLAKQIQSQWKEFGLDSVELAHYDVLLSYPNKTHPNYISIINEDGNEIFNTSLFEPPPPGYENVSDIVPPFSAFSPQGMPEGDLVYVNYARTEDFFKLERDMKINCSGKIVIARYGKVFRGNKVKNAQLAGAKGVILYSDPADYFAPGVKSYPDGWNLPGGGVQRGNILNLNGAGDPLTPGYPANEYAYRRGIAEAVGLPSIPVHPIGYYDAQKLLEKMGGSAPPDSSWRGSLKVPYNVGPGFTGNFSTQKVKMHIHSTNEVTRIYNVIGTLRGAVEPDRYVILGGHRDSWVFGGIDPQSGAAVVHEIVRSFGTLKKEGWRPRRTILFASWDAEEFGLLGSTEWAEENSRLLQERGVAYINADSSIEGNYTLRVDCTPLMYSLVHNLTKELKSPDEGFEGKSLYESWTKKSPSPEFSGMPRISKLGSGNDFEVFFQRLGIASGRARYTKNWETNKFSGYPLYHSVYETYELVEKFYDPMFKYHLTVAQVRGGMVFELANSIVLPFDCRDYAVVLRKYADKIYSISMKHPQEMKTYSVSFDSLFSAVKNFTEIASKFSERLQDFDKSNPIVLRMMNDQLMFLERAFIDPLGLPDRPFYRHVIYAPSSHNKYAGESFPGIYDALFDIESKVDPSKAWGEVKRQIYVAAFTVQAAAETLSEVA
T2 sequence (Q04609 44-750 limits assumed): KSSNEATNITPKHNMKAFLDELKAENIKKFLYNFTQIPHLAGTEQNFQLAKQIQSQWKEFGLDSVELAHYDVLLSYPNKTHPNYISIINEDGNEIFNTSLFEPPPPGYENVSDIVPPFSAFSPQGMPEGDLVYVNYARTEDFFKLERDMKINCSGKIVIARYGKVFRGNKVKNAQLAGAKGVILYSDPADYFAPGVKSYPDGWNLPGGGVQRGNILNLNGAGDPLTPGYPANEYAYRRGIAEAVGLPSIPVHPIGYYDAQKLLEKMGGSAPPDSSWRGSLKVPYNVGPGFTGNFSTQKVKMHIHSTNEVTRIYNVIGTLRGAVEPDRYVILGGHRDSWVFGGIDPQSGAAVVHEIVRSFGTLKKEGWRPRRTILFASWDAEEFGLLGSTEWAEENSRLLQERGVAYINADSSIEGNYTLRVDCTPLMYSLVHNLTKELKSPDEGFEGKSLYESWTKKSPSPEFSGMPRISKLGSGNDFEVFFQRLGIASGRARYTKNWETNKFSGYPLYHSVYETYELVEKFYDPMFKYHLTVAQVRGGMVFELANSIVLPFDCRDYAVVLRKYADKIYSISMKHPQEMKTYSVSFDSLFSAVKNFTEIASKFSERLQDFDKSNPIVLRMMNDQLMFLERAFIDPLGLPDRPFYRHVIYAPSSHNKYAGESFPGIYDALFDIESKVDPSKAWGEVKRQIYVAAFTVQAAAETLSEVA
Sequence of hPDL1 (Q9NZQ7 19-238 limits assumed): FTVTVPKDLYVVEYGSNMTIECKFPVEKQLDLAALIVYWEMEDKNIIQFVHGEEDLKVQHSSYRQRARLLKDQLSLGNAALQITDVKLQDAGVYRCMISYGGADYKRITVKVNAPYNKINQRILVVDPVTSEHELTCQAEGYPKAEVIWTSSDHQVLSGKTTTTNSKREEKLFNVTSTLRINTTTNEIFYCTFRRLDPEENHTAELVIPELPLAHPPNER

B1: 2-F2 (bispecific antibody)
heavy 1: not shown
light 1: EIVLTQSPDFQSVTPKEKVTITCSASSSVSHMYWYQQKPDQSPKLLIYRTSNLASGVPSRFSGSGSGTDFTLTINSLEAEDAATYYCQQYHSYPLMFGQGTKLEIKRTVAAPSVFIFPPSDEQLKSGTASVVCLLNNFYPREAKVQWKVDNALQSGNSQESVTEQDSKDSTYSLSSTLTLSKADYEKHKVYACEVTHQGLSSPVTKSFNRGEC
heavy 2: not shown
light 2: not shown
- cytotoxic activity against Lncap, EC50 (LDH release, PBMC E:T 10:1, 48 h) [1]: 0.0084 nM
- cytotoxic activity against Lncap, Maximum lysis rate % [1]: 48.7%

B2: HJ-3 (bispecific antibody)
chain 1: not shown
chain 2: DIQMTQSPSSVSASVGDRVTITCRASQDIANYLSWYQQKPGKSPKLLIYGTSNLEVGVPSRFSGSRSGTDFTLTISSLQPEDFATYYCLQDKEFPRTFGGGTKVEIKGGGGSSGAPRFLTRPLAFVVSVGKDATLSSQIVGNPTPQVSWEKDKQPVTAGARFRLAQDGDLYRLKILDLQLSDSGQYVSRARNAIGEAFACLGLQVDAEA
chain 3: EVQLVQSGAEVKKPGSSVKVSCKASGYTFSNYLIEWVRQAPGQGLEWIGVIDPGVGDTNYNENFKGRATLTADKSTSTAYIELSSLRSEDTAVYYCAREDNTGTAFDYWGQGTTVTVSSASTKGPSVFPLAPSSKSTSGGTAALGCLVKDYFPEPVTVSWNSGALTSGVHTFPAVLQSSGLYSLSSVVTVPSSSLGTQTYICNVNHKPSNTKVDKKVEPKSCDKTHTCPPCPAPEAAGGPSVFLFPPKPKDTLMISRTPEVTCVVVDVSHEDPEVKFNWYVDGVEVHNAKTKPREEQYNSTYRVVSVLTVLHQDWLNGKEYKCKVSNKALPAPIEKTISKAKGQPREPQVCTLPPSREEMTKNQVSLSCAVKGFYPSDIAVEWESNGQPENNYKTTPPVLDSDGSFFLVSKLTVDKSRWQQGNVFSCSVMHEALHNHYTQKSLSLSPGKDYKDDDDK
chain 4: SIVMTQTPLSLSVTPGQPASISCKASQSVSSDVTWYLQKPGQSPQLLIYYVSEHYTGVPDRFSGSGYGTDFTLKISRVEAEDVGVYYCQQHHRFPLTFGQGTKLEIKRTVAAPSVFIFPPSDEQLKSGTASVVCLLNNFYPREAKVQWKVDNALQSGNSQESVTEQDSKDSTYSLSSTLTLSKADYEKHKVYACEVTHQGLSSPVTKSFNRGEC
- EC50 [2]: 17.4 nM
- EC50 [3]: 3.23 nM

B3: HJ-5 (bispecific antibody)
chain 1: not shown
chain 2: B2 chain 2 with L123K, F125S, T144F, A160V, I194H
chain 3: EVQLVQSGAEVKKPGSSVKVSCKASGYTFSNYLIEWVRQAPGQGLEWIGVIDPGVGDTNYNENFKGRATLTADKSTSTAYIELSSLRSEDTAVYYCAREDNTGTAFDYWGQGTTVTVSSASTKGPSVFPLAPSSKSTSGGTAALGCLVKDYFPEPVTVSWNSGALTSGVHTFPAVLQSSGLYSLSSVVTVPSSSLGTQTYICNVNHKPSNTKVDKKVEPKSCDKTHTCPPCPAPEAAGGPSVFLFPPKPKDTLMISRTPEVTCVVVDVSHEDPEVKFNWYVDGVEVHNAKTKPREEQYNSTYRVVSVLTVLHQDWLNGKEYKCKVSNKALPAPIEKTISKAKGQPREPQVCTLPPSREEMTKNQVSLSCAVKGFYPSDIAVEWESNGQPENNYKTTPPVLDSDGSFFLVSKLTVDKSRWQQGNVFSCSVMHEALHNHYTQKSLSLSPGK
chain 4: B2 chain 4
- EC50 [2]: 16 nM
- EC50 [3]: 2.64 nM

B4: HJ-6 (bispecific antibody)
chain 1: not shown
chain 2: B2 chain 2 with R121C, L123K, F125S, T144F, A160V, I194H
chain 3: B3 chain 3
chain 4: B2 chain 4
- EC50 [2]: 37 nM
- EC50 [3]: 2.88 nM

B5: HJ-7 (bispecific antibody)
chain 1: not shown
chain 2: B2 chain 2 with L123K, F125S, S137C, T144F, A160V, S188C, I194H
chain 3: B3 chain 3
chain 4: B2 chain 4
- EC50 [2]: 17.7 nM
- EC50 [3]: 2.18 nM

B6: HJ-8 (bispecific antibody)
chain 1: not shown
chain 2: B2 chain 2 with G108R, G109T, G110V, G111A, L123K, F125S, T144F, A160V, I194H
chain 3: B3 chain 3
chain 4: B2 chain 4
- EC50 [2]: 18.7 nM
- EC50 [3]: 3.33 nM

B7: HJ-9 (bispecific antibody)
chain 1: not shown
chain 2: B2 chain 2 with G108R, G109T, G110V, G111A, R121C, L123K, F125S, T144F, A160V, I194H
chain 3: B3 chain 3
chain 4: B2 chain 4
- EC50 [2]: 10.9 nM
- EC50 [3]: 3.18 nM

B8: HJ-10 (bispecific antibody)
chain 1: not shown
chain 2: DIQMTQSPSSVSASVGDRVTITCRASQDIANYLSWYQQKPGKSPKLLIYGTSNLEVGVPSRFSGSRSGTDFTLTISSLQPEDFATYYCLQDKEFPRTFGGGTKVEIKRTVASSGAPRFLTRPKASVVSVGKDATLSCQIVGNPFPQVSWEKDKQPVTAGVRFRLAQDGDLYRLKILDLQLSDSGQYVCRARNAHGEAFACLGLQVDAEA
chain 3: B3 chain 3
chain 4: B2 chain 4
- EC50 [2]: 20.8 nM
- EC50 [3]: 3.17 nM

B9: HJ-11 (bispecific antibody)
chain 1: not shown
chain 2: B8 chain 2 with A115C
chain 3: B3 chain 3
chain 4: B2 chain 4
- EC50 [2]: 9.46 nM
- EC50 [3]: 3 nM

B10: Chi13 (antibody, human IgG1, kappa, V domains shown)
VH: QVQLKESGPGLVAPSQSLSITCTVSGFSLTNYAISWVRQPPGKGLEWLGVIWTGGGTHYNSALKSRLSISKDNSKSQVFLKMNSLQTDDTARYYCARKGNYYGSSLYYYAMNYWGQGTSVTVSS
VL: DIQMTQTTSSLSASLGDRVTISCRASQDISNYLNWYQQKPDGTVKLLIYYTSRLQSGVPSRFSGSGSGTDYSLSISNLEQEDIATYFCQQGDTLPYTFGGGTKLEIRT
notes: chimeric antibody, hIgG1/kappa
- EC50 [4]: 0.0409 mg/L
- Top (maximum absorbance) [4]: 2.11 absorbance
- EC50 [5]: 1.21 mg/L

B11: hu13H2L2 (antibody, human IgG1, kappa, V domains shown)
VH: EVTLKESGPVLVKPTETLTLTCTVSGFSLSNYAISWIRQPPGKALEWLGVIWTGGGTHYNSALKSRLTISKDTSKSQVVLTMTNMDPVDTARYYCARKGNYYGSSLYYYAMNYWGQGTTVTVSS
VL: DIQMTQSPSSLSASVGDRVTITCRASQDISNYLNWYQQKPDGAPKLLIYYTSRLQSGVPSRFSGSGSGTDYTLTISSLQPEDFATYYCQQGDTLPYTFGGGTKVEIKR
- EC50 [5]: 1.09 mg/L

B12: hu13H1L1 (antibody, human IgG1, kappa, V domains shown)
VH: B11 VH with G49A, R92T
VL: B11 VL with D41G, G42K, Y71F
- EC50 [5]: 0.947 mg/L

B13: hu13H1L2 (antibody, human IgG1, kappa, V domains shown)
VH: B11 VH with G49A, R92T
VL: B11 VL
- EC50 [5]: 0.981 mg/L

B14: hu13H1L3 (antibody, human IgG1, kappa, V domains shown)
VH: B11 VH with G49A, R92T
VL: B11 VL with A43T, P44V
- EC50 [5]: 1.01 mg/L

B15: hu13H2L1 (antibody, human IgG1, kappa, V domains shown)
VH: B11 VH
VL: B11 VL with D41G, G42K, Y71F
- EC50 [5]: 1.05 mg/L

B16: hu13H2L3 (antibody, human IgG1, kappa, V domains shown)
VH: B11 VH
VL: B11 VL with A43T, P44V
- EC50 [5]: 1.14 mg/L

B17: hu13H3L1 (antibody, human IgG1, kappa, V domains shown)
VH: B11 VH with S30T, A44G, T73N
VL: B11 VL with D41G, G42K, Y71F
- EC50 [5]: 1.05 mg/L

B18: hu13H3L2 (antibody, human IgG1, kappa, V domains shown)
VH: B11 VH with S30T, A44G, T73N
VL: B11 VL
- EC50 [5]: 1.1 mg/L

B19: hu13H3L3 (antibody, human IgG1, kappa, V domains shown)
VH: B11 VH with S30T, A44G, T73N
VL: B11 VL with A43T, P44V
- EC50 [5]: 1.5 mg/L

B20: PL-11 (bispecific antibody)
chain 1: not shown
chain 2: DIVLTQSPASLAVSPGQRATITCRASESVSIHGTHLMHWYQQKPGQPPKLLIYAASKLESGVPARFSGSGSGTDFTLTINPVEAEDTANYYCQQSFEDPLTFGQGTKLEIKRTVASGIPPKIECLPIDISIDEGKVLTVASAFTGEPTPEVTWSTGGRKIHSQEQGRFHIENTDDSTTLTIKDVQKQDGGLYTLTLRNEFGSDSATVNIHIRSI
chain 3: not shown
chain 4: not shown
- EC50 [6]: 0.6 nM
- EC50 [7]: 5.6 nM
